Biological target: dimeric human ACE2 fused to Fc domain of human IgG (human) (UniProt Q9BYF1)
Test: SPR

dimeric human ACE2 fused to Fc domain of human IgG (human), sequence (Q9BYF1 18-740): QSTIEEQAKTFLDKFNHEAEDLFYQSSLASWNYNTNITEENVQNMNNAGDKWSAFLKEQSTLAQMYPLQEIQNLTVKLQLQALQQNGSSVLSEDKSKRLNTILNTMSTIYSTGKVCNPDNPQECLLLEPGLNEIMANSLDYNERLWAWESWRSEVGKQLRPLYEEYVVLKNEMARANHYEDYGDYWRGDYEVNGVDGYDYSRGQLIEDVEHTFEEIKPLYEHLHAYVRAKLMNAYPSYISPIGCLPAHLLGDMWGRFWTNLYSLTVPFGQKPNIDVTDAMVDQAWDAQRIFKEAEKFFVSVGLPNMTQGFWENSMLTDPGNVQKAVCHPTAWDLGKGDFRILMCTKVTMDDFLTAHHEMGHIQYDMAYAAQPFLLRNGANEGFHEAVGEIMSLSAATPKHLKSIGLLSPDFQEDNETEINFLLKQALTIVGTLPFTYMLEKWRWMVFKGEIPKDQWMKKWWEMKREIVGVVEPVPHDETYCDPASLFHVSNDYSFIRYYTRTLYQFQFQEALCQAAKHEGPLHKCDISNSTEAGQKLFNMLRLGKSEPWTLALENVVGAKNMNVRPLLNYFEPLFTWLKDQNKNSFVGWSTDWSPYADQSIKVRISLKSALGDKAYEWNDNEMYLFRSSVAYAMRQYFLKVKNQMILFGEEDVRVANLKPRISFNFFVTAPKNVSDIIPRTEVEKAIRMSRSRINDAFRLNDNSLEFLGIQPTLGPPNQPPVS

Substance: ADDomer particle decorated with SARS-CoV-2 RBD (ADD-RBD) (from UniProt Q2Y0H9 1-544; P0DTC2 320-554) (complex)
- Kd: 0.309 nM

Reference: article doi:10.1101/2021.09.13.460076
